Results from patent publication US20090017017A1 (SYMPHOGEN A S, published 2009).

B1: RhD193.126G05 (Fab, V domains shown)
VH: QVQLVETGGGVVQPGRSLRLSCAASGFTFSSYGMHWVRQAPGKGLEWVAVIWYDGSNKDYADPVKGRFTISRDNSKNTLYLQMNSLRAEDTAVYYCAREIASRGYSRYLYYFDSWGQGTLVTVSS
VL: DIQMTQSPSSLSASVGDRVTITCRASQSISSYLNWYQQNPGKAPKLLIYGASNLQSGVPSRFSGSGSGTDFTLTISSLQPEDFATYYCQQSYSTLALTFGGGTKVEIKR
notes: Tested as Fab in E. coli periplasmic extract (VH on human gamma 1 CH1, vector Em351)
B2: RhD297.126E06 (Fab, V domains shown)
VH: QVQLVESGGGVVQPGRSLRLSCAASGFTFRTYGMHWVRQAPGKGLEWVAVIWYDGSNKDYADSVKGRFTISRDNSKNTLHLQMNSLRAEDTAVYYCAREIASRGYSRYLYYLDFWGQGTLVTVSS
VL: DIQLTQSPSSLSASVGDRVTITCRASQSISSYLNWYQQNPGKAPKLLIYGASNLQSGVPSRFSGSGSGTDFTLTISSLQPEDFATYYCQQSYSTLALTFGGGTKVEIKR
notes: as for B1
B3: RhD197.127A08 (Fab, V domains shown)
VH: QVQLVESGGGVVQPGRSLRLSCAASGFTFSNYGMHWVRQAPGKGLEWVAVIWFDGSNRDYADSVKGRFTISRDNSKKTLYLQMNSLRAEDTAVYYCATELARGRLRALEYWGQGTLVTVSS
VL: QTVVTQEPSLTVSPGGTVTLTCASSTGAVTTGYYPNWFQQKPGQAPRALIYSTSKKHSWTPARFSGSLLGGKAALTLSGVQPEDEAEYYCLLFYGGAQLGVFGGGTKLTVLG
notes: Tested as Fab in E. coli periplasmic extract (VH on human gamma 1 CH1, vector Em351); Lambda clone
B4: RhD207.127A11 (Fab, V domains shown)
VH: EVQLVESGGGVVQPGRSLRLSCAASGFTFSSYGMHWVRQAPGKGLEWVAVIWYDGSNKDYVDSVKGRFTISRDNSKNTLYLQMNSLRAEDTAVYYCARELAKGRLRDLDHWGQGTLVTVSS
VL: QAVVTQEPSLTVSPGGTVTLTCASSTGAVTTGYYPNWFQQKPGQAPRALVHSTSKKHSWTPARFSGSLLGGKAALTLSGVQPEDEAEYYCLLFYGGAQLGVFGGGTKLTVLG
notes: as for B1
B5: RhD190.119F05 (Fab, V domains shown)
VH: EVQLVETGGGVVQPGRSLRLSCAASGFSFSNYGMHWVRQAPGKGLEWVAVIWFDGSIKYYVDSVKGRFTISRDNSKNTLYLQMNSLRAEETAIYFCARENSVLVPGTIRRRYYLDYWGQGTLVTVSS
VL: DIQLTQSPSSLSASVGDRVTITCRASQSISSYLNWYQQKPGEAPKLLIYVASTLQSGAPSRFSGSGSGTDYTLTISSLQPEDSATFYCQQTYSPPYTFGQGTKLEIKR
notes: as for B1
B6: RhD200.164G10 (Fab, V domains shown)
VH: VQLVESGGGGVVQPGRSLRLSCAASGFTFSSYGMHWVRQAPGKGLEWVAVIWYDGSNKYYADSVKGRFTISRDNSKNTLYLQMNSLRAEDTAVYYCARESTLYSSSWYRRYYYYGMDVWGQGTTVTVSS
VL: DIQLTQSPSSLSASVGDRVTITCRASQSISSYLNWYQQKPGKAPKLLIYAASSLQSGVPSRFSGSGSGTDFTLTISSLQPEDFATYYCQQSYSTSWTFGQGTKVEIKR
notes: as for B1
B7: RhD201.164H12 (Fab, V domains shown)
VH: QVQLVESGGGVVQPGRSLRLSCAASGFTFSSYAMHWVRQAPGKGLEWVAVISYDGSNKYYADSVKGRFTISRDNSKNTLYLQMNSLRAEDTAVYYCARESTLYSSSWYRRYYYYSMDVWGQGTTVTVSS
VL: EIVLTQSPATLSVSPGERATLSCRASQSVTSNLAWYQQKPGQAPRLLIYGASTRATGVPARFSGSGSGTEFSLTISSLQSEDFAVYYCQQYNNWPPIFTFGPGTKLDIKR
notes: as for B1
B8: RhD157.119D11 (Fab, V domains shown)
VH: EVQLVESGGGLVQPGGSLRLSCVASGFTFRSFDMNWVRQAPGKGLEWVSYINSRGSTIYYADSVKGRFTISRENAKNSLYLQMNSLRAEDTAVYYCARDLYGDYDPKSYYYYGMGVWGQGTTVTVSS
VL: EIVLTQSPATLSLSPGERATLSCRASQSVSSYLAWYQQKRGQAPRLLIFNASNRATGIPARFSGSGSGTDFTLTISSLEPEDFAVYYCQQRSSWPPMYTFGQGTKLEIKR
notes: as for B1
B9: RhD194.126G10 (Fab, V domains shown)
VH: QVTLKESGPVLVKPTETLTLTCTVSGFSLSNARMGVSWIRQPPGKALEWLAHIFSNDEKSYSTSLKSRLTISKDTSKSQVVLTMTNMDPVDTATYYCARMRLTMVRGVITYYYYSMDVWGQGTTVTVSS
VL: DIQMTQSPSSLSASVGDRVTITCRASQSISTYLNWYQQKPGKAPKLLIYAASTLQSGVPSRFSGSGSGTHFTLTISSLQREDFATYYCQQTYRTPTWTFGQGTKVEIKR
notes: as for B1
B10: RhD298.126E10 (Fab, V domains shown)
VH: QVQLVESGGGVVQPGRSLRLSCAASGFTFSSYGMHWVRQAPGKGLEWVAVIWYDGSNKYYADSVKGRFTISRDNSKNTLYLQMNSVRAEDTAVYYCARDLSTQRGYSRYYYVMDVWGQGTTVTVSS
VL: DIQMTQSPSSLSASVGDRVTITCRASQSISTYLNWYQQKPGKAPKLLISAASSLQSGVPSRFSGSGSGTDFTLTISSLQREDYAAYYCQQSYSTPPYTFGQGTKLEIKR
notes: as for B1
B11: RhD198.127F10 (Fab, V domains shown)
VH: QVQLVQSGGGVVQPGKSLRLSCAASGFTFSTYGMHWVRQAPGKGLEWVAVIWYDGSNKYYADSVKGRFTISRDTSKNTLYLQMNSVRVEDTAVYYCARDLTTQRGYSRYHYVMDVWGQGTTVTVSS
VL: DIQMTQSPSSLSASVGDRVTITCRASQSIGNYLNWYQQKPGKAPKLLISAASSLQSGVPSRFSGSGSGTDFTLTISSLHREDYATYYCQQSYSTPPYTFGQGTKLEIKR
notes: as for B1
B12: RhD196.126H11 (Fab, V domains shown)
VH: QVQLVESGGGVVQPGRSLRLSCAASGFTFSSYGMHWVRQAPGKGLEWVAVIWYDGSNKDYADSVKGRFTISRDNSKNTLYLQMNSVRAEDTAVYYCARELSTQRGYSRYHYVMDVWGQGTTVTVSS
VL: DIQMTQSPSSLSASVGDRVTITCRASQSISTYLNWYQQKPGKAPKLLIYAASTLQSGVPSRFSGSGSGTHFTLTISSLQREDFATYYCQQSYGTPTWTFGQGTKVEIKR
notes: as for B1
B13: RhD192.119G06 (Fab, V domains shown)
VH: QVQLVESGGGLVKPGGSLRLSCAASGFTFSSYAMNWVRQAPGKGLEWVSSISGTSSYIYYADSVKGRFTIFRDNAKSSVYLQMNSLRVEDTAVYYCARDRWWGMVRRVFPTYPFDYWGQGTLVTVSS
VL: DIQLTQSPSSVSASVGDRVTITCRASQGINNLLAWYQQKPGKAPKLLIYAASNLQSGVPSRFSGSGSGTDFTLTINSLQPEDFATYYCQQANSFPLTFGGGTKVEIKR
notes: as for B1
B14: RhD195.127A07 (Fab, V domains shown)
VH: QVQLQESGPGLVKPSQTLSLTCTVSGGSISSGSYYWSWIRQPAGKGPEWIGRIYTSGSTNYNPSLKSRLTISVDTSKNQFSLKLTSVTAADTAVYYCARAPSYYDSSGYRYWYIDLWGRGTLVTVSS
VL: DIQLTQSPSSLSASVGDRVTITCRASQNINRYLNWYQHKPGRAPELLIYAASTLRRGVPSRFSGSGSGTDFTLTISSLQPEDFATYYCQQSYSRGTFGQGTKVEIKR
notes: as for B1
B15: RhD191.119E08 (Fab, V domains shown)
VH: QVQLVESGGDLVQPGGSLRLSCAASGFTFRSYEMNWVRQAPGKGLEWVSYINSRGNTKYYADSVKGRFTISRDNAKKSLYLQMSSLRAEDTAVYYCARNLFGDYDLKSYYYNAMDVWGQGTLVTVSS
VL: EIVLTQSPGTLSSSPGERATLSCRASQSVTSRYLAWYQQKHGQAPRLLIYGTSTRATGIPDRFSGGGSQTDFTLTISRLEPEDFAVYYCQHYDDSISTYIFGPGTELEIKR
notes: as for B1

Molecular target: T1, Rhesus D antigen (human, UniProt Q02161 2-417)
T1 construct: whole, on cells; Presented on RhD(+) erythrocytes; also called RhD; RhD antigen
T1 sequence (looked up): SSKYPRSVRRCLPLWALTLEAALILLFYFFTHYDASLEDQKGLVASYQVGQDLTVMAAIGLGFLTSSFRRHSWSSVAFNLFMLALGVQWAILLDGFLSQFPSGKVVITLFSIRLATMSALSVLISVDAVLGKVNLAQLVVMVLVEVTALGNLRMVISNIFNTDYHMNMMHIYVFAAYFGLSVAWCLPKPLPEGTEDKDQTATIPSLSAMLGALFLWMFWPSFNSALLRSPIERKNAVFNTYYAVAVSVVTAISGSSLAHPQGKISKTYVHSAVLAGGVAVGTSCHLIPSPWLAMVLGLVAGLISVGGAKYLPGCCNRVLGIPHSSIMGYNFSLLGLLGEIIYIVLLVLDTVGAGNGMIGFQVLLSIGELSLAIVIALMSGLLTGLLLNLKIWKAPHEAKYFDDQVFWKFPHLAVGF
Test: agglutination assay, Fab periplasmic extract on RhD(+)/RhD(-) RBC mix
Description: After each round of panning single colonies were picked for analysis of their binding properties to red blood cells in agglutination assays. Briefly, single colonies were inoculated into 2×YT/100 μg/mL carbenicillin/1% glucose and shaken overnight at 37° C. The next day, DeepWell plates were inoculated using 900 μl 2×YT/100 μg/mL carbenicillin/0.1% glucose and 10 μl overnight culture. The plates were shaken for two hours at 37° C., before Fab induction was performed with addition of 300 μl 2×YT/100 μg/mL carbenicillin/0.25 mM IPTG per well. The plate was shaken overnight at 30° C. The following day, the bacteria were pelleted by centrifugation (3200×g, 4° C., 10 minutes), and re-suspended in 100 μl of 0.8 M NaCl, 0.2×PBS, 8 mM EDTA, and incubated for 15 minutes on ice in order to perform a periplasmic extraction of the Fab fragments. The plate was transferred to −20° C. and finally the suspension was thawed and centrifugation was performed for 10 minutes at 4° C. and 3200×g. The periplasmic extract was used in ELISA assays for analysis of Fab content and in agglutination assays to evaluate the binding potential of the individual Fab fragments.
The agglutination assay was performed as follows: RhD(−) and RhD(+) RBC were mixed in a 1:1 ratio, and washed 3 times in PBS. After the final wash, the cell mix was re-suspended in 1% BSA in PBS at a density of 10% cells, 50 μl was added to each well of a 96-plate. Periplasmic extracts were added to the wells. As a positive control Rhesogamma P immunoglobulin (Aventis) was used according to the manufacturer's instructions. The plates were incubated for one hour at room temperature with gentle shaking. The cells were washed three times with PBS, before the secondary antibody was added (goat anti-human Fab/FITC conjugate, Sigma F5512) in a 1:100 dilution. The plates were left for agglutination for one hour at room temperature without shaking. Fab fragments positive in the agglutination assay was determined by visual inspection, and recorded by taking a picture. Quantization of the binding activity of the Fab fragments was performed by FACS analysis of the agglutination samples.

Binding result, binds:
B1, B2, B3, B4, B5, B6, B7, B8, B9, B10, B11, B12, B13, B14, B15
